Publication PMC2133107 (The Journal of Cell Biology, 1999)

B1: HIV Rev protein (natural protein)
chain: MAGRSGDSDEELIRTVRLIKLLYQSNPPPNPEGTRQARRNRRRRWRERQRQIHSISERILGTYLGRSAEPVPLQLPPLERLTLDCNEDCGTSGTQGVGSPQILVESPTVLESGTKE

How the values were obtained:
[1] = molecular target: Ran wild type, Ran-[γ-32P]GTP (UniProt P62826)
[2] = molecular target: Human CRM1 (recombinant, untagged) (human, UniProt O14980 1-1071)
Human CRM1 (recombinant, untagged) (human, UniProt O14980 1-1071), sequence (O14980 whole entry): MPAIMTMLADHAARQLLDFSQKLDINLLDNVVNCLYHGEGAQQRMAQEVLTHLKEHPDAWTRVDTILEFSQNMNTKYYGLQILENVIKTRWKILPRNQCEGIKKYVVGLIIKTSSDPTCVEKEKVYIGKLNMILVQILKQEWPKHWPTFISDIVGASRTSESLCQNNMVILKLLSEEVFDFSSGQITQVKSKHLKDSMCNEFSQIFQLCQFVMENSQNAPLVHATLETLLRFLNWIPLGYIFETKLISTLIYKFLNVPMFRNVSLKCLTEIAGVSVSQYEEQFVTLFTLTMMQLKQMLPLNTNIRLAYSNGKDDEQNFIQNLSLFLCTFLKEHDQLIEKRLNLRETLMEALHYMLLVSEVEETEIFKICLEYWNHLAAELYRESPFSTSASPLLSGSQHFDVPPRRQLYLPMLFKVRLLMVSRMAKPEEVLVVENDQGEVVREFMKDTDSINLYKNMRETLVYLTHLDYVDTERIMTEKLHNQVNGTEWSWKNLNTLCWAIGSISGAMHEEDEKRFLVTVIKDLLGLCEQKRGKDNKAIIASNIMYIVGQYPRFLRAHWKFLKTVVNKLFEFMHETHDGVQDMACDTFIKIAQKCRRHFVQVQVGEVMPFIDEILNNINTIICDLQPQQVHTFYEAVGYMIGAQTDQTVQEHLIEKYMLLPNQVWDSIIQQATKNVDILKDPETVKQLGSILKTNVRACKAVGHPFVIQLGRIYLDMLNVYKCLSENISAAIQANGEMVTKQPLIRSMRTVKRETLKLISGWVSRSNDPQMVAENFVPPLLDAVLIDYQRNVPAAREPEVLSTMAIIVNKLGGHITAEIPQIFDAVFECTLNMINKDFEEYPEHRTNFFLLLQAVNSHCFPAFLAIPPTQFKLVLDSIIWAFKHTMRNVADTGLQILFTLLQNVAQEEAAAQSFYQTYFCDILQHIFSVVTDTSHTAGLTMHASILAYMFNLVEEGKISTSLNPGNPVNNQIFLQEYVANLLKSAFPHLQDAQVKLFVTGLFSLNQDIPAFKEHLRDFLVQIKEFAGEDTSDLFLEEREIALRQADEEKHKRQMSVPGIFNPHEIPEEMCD

Molecule | Kd [1] [µM] | Kd [2] [µM]
Human CRM1 (recombinant, untagged) (from UniProt O14980 1-1071) (natural protein; other documents disagree on this pair) | > 1 | 
CLPPLERLTL [Rev-NES peptide 1] |  | ~50
CPVPLQLPPLERLTLD [Rev-NES peptide 2] |  | ~7
B1 |  | ~0.5
